Test results from patent US20230159610A1 (BIOTEST, published 2023).
Substitutions are numbered along the chain they refer to.

B1: FcTregV23 (other)
chain: DKTHTCPPCPAPELLGGPSVFLFPPKPKDTLMISRTPEVTCVVVDVSHEDPEVKFNWYVDGVEVHNAKTKPREEQYNSTYRVGTDFTLTISSLQPEDEYKCKVSNKALPAPIEKTISKAKGQPREPQVYTLPPSRDELTKNQVSLTCLVKGFYPSDIAVEWESNGQPENNYKTTPPVLDSDGSFFLYSKLTVDKSRWQQGNVFSCSVMHEALHNHYTQKSLSLSPGK
notes: Human IgG1 Fc-part with Treg084 in frame A; also called Construct V23
B2: FcTregV13 (other)
chain: DKTHTCPPCPAPELLGGPSVFLFPPKPKDTLMISRTPEVTCVVVDVSHEDPEVKFNWYVDGVEVHNAKTKPREEQYQSTYRVVSVLTVLHQDWLNGKEYKCKVSNKALPAPIEKTISKAKGTDFTLTISSLQPEDDELTKNQVSLTCLVKGFYPSDIAVEWESNGQPENNYKTTPPVLDSDGSFFLYSKLTVDKSRWQQGNVFSCSVMHEALHNHYTQKSLSLSPGKKTLYLQMNSLRAEDTAKH
notes: TCP on the human IgG1 Fc-part: Treg289 in frame A, Treg084 in frame C, Treg088x C-terminal; also called Construct V13
B3: FcTregV20 (other)
chain: DKTHTCPPCPAPELLGGPSVFLFPPKPKDTLMISRTPEVTCVVVDVSHEDPEVKFNWYVDGVEVHNAKTKPREEQYNSTYRVVSVLTVLHQDWLNGKEYKCKVSNKALPAPIEKTISKAGGLVQPGGSLRLSCAASGFTFNQVSLTCLVKGFYPSDIAVEWESNGQPENNYKTTPPVLDSDGSKTLYLQMNSLRAEDTAKHVFSCSVMHEALHNHYTQKSLSLSPGK
notes: also called Construct V20
B4: FcTregV32 (other)
chain: DKTHTCPPCPAPELLGGPSVFLFPPKPKDTLMISRTPEVTCVVVDVSHEDPEVKFNWYVDGVEVHNAKTKPREEQYGGLVQPGGSLRLSCAASGFTFEYKCKVSNKALPAPIEKTISKAKGTDFTLTISSLQPEDRDELTKNQVSLTCLVKGFYPSDIAVEWESNGQPENNYKTTGGLVQPGGSLRLSCAASGFTFRWQQGNVFSCSVMHEALHNHYTQKSLSLSPGKKTLYLQMNSLRAEDTAKH
notes: TCP on the human IgG1 Fc-part: Treg009A in frame A, Treg084 in frame C, Treg009A in frame B, Treg088x C-terminal; also called Construct V32
B5: FcTregV1 (other)
chain: DKTHTCPPCPAPELLGGPSVFLFPPKPKDTLMISRTPEVTCVVVDVSHEDPEVKFNWYVDGVEVHNAKTKPREEQYQSTYRVVSVLTVLHQDWLNGKEYKCKVSNKALPAPIEKTISKAKGTDFTLTISSLQPEDDELTKNQVSLTCLVKGFYPSDIAVEWESNGQPENNYKTTPPVLDSDGSFFLYSKLTVDKSRWQQGNVFSCSVMHEALHNHYTQKSLSLSPGKLNNFYPREAKVQWKVDNALQSGNS
notes: Tregitope carrying polypeptide (TCP) built on the human IgG1 Fc-part: Treg289 in frame A, Treg084 in frame C, Treg134 C-terminal; also called Construct V1
B6: FcTregV14 (other)
chain: B5 chain with Q77N
notes: TCP on the human IgG1 Fc-part: Treg084 in frame C, Treg134 C-terminal; also called Construct V14
B7: FcTregV34 (other)
chain: DKTHTCPPCPAPELLGGPSVFLFPPKPKDTLMISRTPEVTCVVVDVSHEDPEVKFNWYVDGVEVHNAKTKPREEQYNSTYRVVSVLTVLHQDWLNGKEYKCKVSNKALPAPIEKTISKAKGQPREPQVYTLPPSRDELTKNQVSLTCLVKGFYPSDIAVEWESNGQPENNYKTTPPEEQYQSTYRVVSVLTVLHQDWQQGNVFSCSVMHEALHNHYTQKSLSLSPGKKTLYLQMNSLRAEDTAKH
notes: TCP on the human IgG1 Fc-part: Treg289 in frame B, Treg088x C-terminal; also called Construct V34

Target: the molecule itself
Experiment: dimer formation of the expressed construct (self-association), Western blot of transfected cells

Binding result, binds:
B1
B2
B3
B4
B5
B6
B7
